We go through one molecule from paper PMC12852381 (2025).

For orientation: Kd means the equilibrium constant for the complex coming apart. High values mean weaker binding, low ones tighter binding.

This test has as its target DENV-2 Envelope protein (DENV E dimeric protein) (Dengue virus type 2; strain of the BLI …, UniProt P14340). Put plainly: BLI; Octet RED 96, 24 °C, 1,000 rpm; CR3022 (5 µg/ml) loaded on AHC (anti-hIgG Fc capture) sensors; DENV E dimeric protein diluted three-fold from 6,000 nM; 50 mM Tris, 150 mM NaCl, 0.5% glycerol, pH 8.0; global 1:1 fit. The settings on record: both partners purified.

B1: CR3022, an antibody against the SARS-CoV-2 spike protein (antibody, V domains shown)
VH: EVQLVQSGTEVKKPGESLKISCKGSGYGFITYWIGWVRQMPGKGLEWMGIIYPGDSETRYSPSFQGQVTISADKSINTAYLQWSSLKASDTAIYYCAGGSGISTPMDVWGQGTTVTVSS
VL: not shown
On to B1, for which the Kd was found to be 2.83 µM.
